± gives the uncertainty stated by the source.
Test: self-splicing fitness, log relative to wild type (ln ratio); higher = more splicing; Tetrahymena group I intron in knt gene, E. coli kanamycin selection, DiMSum; sequences stand for … in CUCUCU…GGAGGGAAAAGUUAUCAGGCAUGCACCUGGUAGCUAGUCUUUAAACCAAUAGAUUGCAUCGGUUUAAAAGGCAAGACCGUCAAAUUGCGGGAAAGGGGUCAACAGCCGUUCAGUACCAAGUCUCAGGGGAAACUUUGAGAUGGCCUUGCAAAGGGUAUGGUAAUAAGCUGACGGACAUGGUCCUAACCACGCAGCCAAGUCCUAAGUCAACAGAUCUUCUGUUGAUAUGGAUGCAGUUCACAGACUAAAUGUCGGUCGGGGAAGAUGUAUUCUUCUCAUAAGAUAUAGUCGGACCUCUCCUUAAUGGGAGCUAGCGGAUGAAGUGAUGCAACACUGGAGCCGCUGGGAACUAAUUUGUAUGCGAAAGUAUAUUGAUUAGUUUUGGAGUACUCGUGGUCG
Outline: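 The eight P1ex-region nucleotides of an intron in the knt kanamycin-resistance gene on pET-22b(+) were all randomised and the library put into E. coli BL21(DE3). Six replicate transformations were grown overnight at 37°C or 30°C on LB agar with or without 25 μg/mL kanamycin, together with 100 μg/mL carbenicillin, 50 μM IPTG and 0.2% rhamnose. Colonies were pooled and amplicon-sequenced on an Illumina HiSeq 2500. Fitness from DiMSum is the error-weighted combination of wild-type-normalised replicate fold changes, kanamycin over none.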

Sequence | self-splicing fitness (ln) (30 °C) | self-splicing fitness (ln) (37 °C)
UCCUAGCAAUAUUACGGCAG | -3.38 ± 0.24 | -2.81 ± 0.22
UCCUAGCAAUAUUACGGCCG | -4.16 ± 0.42 | -3.12 ± 0.37
UCCUAGCAAUAUUACGGUUA |  | -2.54 ± 0.31
UCCUAGCAAUAUUACGUCAU | -3.25 ± 0.13 | -3.37 ± 0.23
UCCUAGCAAUAUUACGUGCU | -3.5 ± 0.17 | -1.8 ± 0.2
UCGAAGCAAUAUUACGACUU | -1.14 ± 0.21 | -2.8 ± 0.23
UCGAAGCAAUAUUACGAGAU | -4.08 ± 0.42 | -2.66 ± 0.21
UCGAAGCAAUAUUACGAUUU | -4.4 ± 0.39 | -1.97 ± 0.23
UCGAAGCAAUAUUACGCAGG | -3.31 ± 0.23 | -1.8 ± 0.16
UCGAAGCAAUAUUACGCCGA | -0.786 ± 0.25 | -1.16 ± 0.28
UCGAAGCAAUAUUACGCCGG | -2.32 ± 0.13 | -2.18 ± 0.19
UCGAAGCAAUAUUACGGCUU | -3.32 ± 0.27 | -2.85 ± 0.22
UCGAAGCAAUAUUACGGGAG | -3.68 ± 0.33 | -2.91 ± 0.31
UCGAAGCAAUAUUACGUAGG | -1.42 ± 0.08 | -1.61 ± 0.1
UCGAAGCAAUAUUACGUCAC | -2.21 ± 0.12 | -2.69 ± 0.27
UCGAAGCAAUAUUACGUGGG | -2.34 ± 0.14 | -2.18 ± 0.18
UCGAAGCAAUAUUACGUUAU | -4.01 ± 0.28 | -1.16 ± 0.15
UCGAAGCAAUAUUACGUUCA | -2.59 ± 0.26 | -1.18 ± 0.17
UCGAAGCAAUAUUACGUUCG | -1.54 ± 0.12 | -0.659 ± 0.19
UCGCAGCAAUAUUACGAAUG | -3.42 ± 0.23 | -4.35 ± 0.42
UCGCAGCAAUAUUACGACCU | -3.1 ± 0.41 | -1.37 ± 0.27
UCGCAGCAAUAUUACGAUCC |  | -1.68 ± 0.36
UCGCAGCAAUAUUACGAUCU | -1.17 ± 0.21 | -2.57 ± 0.21
UCGCAGCAAUAUUACGAUGG | -0.799 ± 0.061 | -0.226 ± 0.084
UCGCAGCAAUAUUACGAUUC | -3.5 ± 0.48 | 

Sequence | self-splicing fitness (ln) (30 °C) | self-splicing fitness (ln) (37 °C)
UCGCAGCAAUAUUACGCAUA | -1.94 ± 0.13 | -0.0771 ± 0.11
UCGCAGCAAUAUUACGCGCC | -3.12 ± 0.17 | -1.59 ± 0.13
UCGCAGCAAUAUUACGCGGC |  | -1.94 ± 0.26
UCGCAGCAAUAUUACGCGGG | -3.93 ± 0.3 | -3.33 ± 0.33
UCGCAGCAAUAUUACGCGUA | -1.83 ± 0.12 | -0.123 ± 0.11
UCGCAGCAAUAUUACGCUCA | -1.37 ± 0.085 | -0.529 ± 0.091
UCGCAGCAAUAUUACGGAAU | -2.75 ± 0.27 | -2.5 ± 0.26
UCGCAGCAAUAUUACGGGCA | -1.41 ± 0.4 | -0.479 ± 0.23
UCGCAGCAAUAUUACGGGGG | -2.52 ± 0.15 | -1.86 ± 0.17
UCGCAGCAAUAUUACGGGUC |  | -2.14 ± 0.23
UCGCAGCAAUAUUACGGUCC |  | -1.82 ± 0.24
UCGCAGCAAUAUUACGGUGG | -3.36 ± 0.18 | -2.85 ± 0.21
UCGCAGCAAUAUUACGUCCC | -4.28 ± 0.32 | -2.97 ± 0.3
UCGCAGCAAUAUUACGUGGG | -4.4 ± 0.36 | -2.53 ± 0.14
UCGCAGCAAUAUUACGUGUC | -3.83 ± 0.2 | -2.28 ± 0.17
UCGGAGCAAUAUUACGACUU | -3.46 ± 0.22 | -2.48 ± 0.19
UCGGAGCAAUAUUACGAGUC |  | -0.017 ± 0.39
UCGGAGCAAUAUUACGCACA | -2.26 ± 0.46 | -2.22 ± 0.43
UCGGAGCAAUAUUACGCAGA |  | -2.13 ± 0.23
UCGGAGCAAUAUUACGCGAU | -3.51 ± 0.19 | -2.42 ± 0.23
UCGGAGCAAUAUUACGCGGG | -4.21 ± 0.31 | -2.77 ± 0.27
UCGGAGCAAUAUUACGGCAU | -2.73 ± 0.21 | -1.97 ± 0.37
UCGGAGCAAUAUUACGGCCC |  | -2.31 ± 0.45
UCGGAGCAAUAUUACGGCGA | -1.1 ± 0.18 | -0.689 ± 0.23
UCGGAGCAAUAUUACGGGCC | -4.15 ± 0.39 | -3.6 ± 0.33
